Test results from patent US20050164933A1 (NONO, published 2005).

B1: GST-PAR3 PDZ domain 3 fusion protein (other, not shown: a dimerising Fc or GST; small tags and cut ends)
chain: PREFLTFEVPLNDSGSAGLGVSVKGNRSKENHADLGIFVKSIINGGAASKDGRLRVNDQLIAVNGESLLGKTNQDAMETLRRSMSTEGNKRGMIQLIVASRISKCNELKSNSS
notes: also called PAR3 d3 (278.1); PAR3 d3
B2: GST-RIM2 PDZ domain 1 fusion protein (other, not shown: a dimerising Fc or GST; small tags and cut ends)
chain: TLNEEHSHSDKHPVTWQPSKDGDRLIGRILLNKRLKDGSVPRDSGAMLGLKVVGGKMTESGRLCAFITKVKKGSLADTVGHLRPGDEVLEWNGRLLQGATFEEVYNIILESKPEPQVELVVSRPIG
notes: also called RIM-2 d1; RIM2 (177.4)
B3: GST-ZO-1 PDZ domain 2 fusion protein (other, not shown: a dimerising Fc or GST; small tags and cut ends)
chain: ISSQPAKPTKVTLVKSRKNEEYGLRLASHIFVKEISQDSLAARDGNIQEGDVVLKINGTVTENMSLTDAKTLIERSKGKLKMVVQRDRATLLNSS
notes: also called ZO-1 d2 (241.3); ZO-1 d2

Biological target: …
Assay: G assay

Row | Binder | binding result
1 | B1 | binds
2 | B2 | binds
3 | B3 | binds
